In the supplement of paper PMC9170038:

Tests used:
MS2 coat protein [1] = experiment: apparent KD of MS2 coat protein, switch OFF state (with FMN for OFF switches, without FMN for ON switches); designed switch direction (-1 OFF switch, 1 ON switch): -1; higher = weaker reporter binding; conditions: FMN input: 0 or 200 uM; Eterna round: R93 (includes R88 designs)
How it was run: (§1)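 Each design's apparent KD comes from the median of binding-curve fits to its normalised clusters. Those clusters carried RNA switches transcribed on-chip from Illumina sequencing clusters. SNAP-549-labelled MS2 coat protein was titrated onto them in twofold steps (0.7 or 1.5 nM to 3 µM; per step 0.8–1.5 h down to 10–20 min). Conditions were 100 mM Tris-HCl pH 7.5, 80 mM KCl, 4 mM MgCl2, without or with constant ligand.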

MS2 coat protein [2] = experiment: apparent KD of MS2 coat protein, switch ON state; designed switch direction (-1 OFF switch, 1 ON switch): -1; higher = weaker reporter binding; conditions: FMN input: 0 or 200 uM; Eterna round: R93 (includes R88 designs)
How it was run: as §1

Sequence | apparent KD of MS2 coat protein (MS2 coat protein [1]) [nM] | apparent KD of MS2 coat protein (MS2 coat protein [2]) [nM]
AAGAAUGGAGGAUAUACAAGAAAGAAAGAAAAGAAAAGAAAACAUGAGGAUCACCCAUGUAGAAGGCCAUAGAA [EteRNA is fun!] | 13.8 | 24.9
AGGUUGUCAGGAUAUGCGUGAAGAAUAAAACAAAUAACAACGCAGAAGGGACAUGAGGAUCACCCAUGUUAAGA [May 47] | 48.3 | 39.8
AAGAAUGCAGGAUAUACAUGAGGAUCACCCAUGUAAAAGAAAGAAAGGGAAAAGAAAAGUAGAAGGGCAAAGAA [Usermaatre-setepenamun Osorkon II] | 36.5 | 35.8
UAAAACCUAGGAUAUACAUGAGGAUCACCCAUGUGGCACUCCGCAGGCAUUGUUCCCAGUAGAAGGAGGACACG [Inan] | 23.9 | 20.6
AAGAACUCAGGAUAUACUAAAGAAAUGAAAAGAAAGAAAGAACAUGAGGAUCACCCAUGUAGAAGGGAGAAGAA [Qareh Khawoserre] | 35.4 | 86.4
AACAAACAUGAGGAUCACCCAUGUAAGGAUAUGCGACAAAAACAAAAAACAAAAAAAAGCAGAAGGUACAACAA [Amethyst 100] | 30.4 | 23.4
AAGAAGUCAGGAUAUGCUGCUCGUCACAAAAGUGAUGAGUAGCAGAAGGGACAUGAGGAUCACCCAUGUAAAAA [Opal 33] | 42 | 49.1
AGUACUACAGGAUAUACGAGGGAGGUCCACGUGAACCUUAUACAUGAGGAUCACCCAUGUAGAAGGGUAGUACA [Ex2 Design 108: Super Stable 8] | 18.4 | 50.9
AACAGACAUGAGGAUCACCCAUGUGAGGAUAUCCAAAACGAUAAAACAAGAAUGACAGGGAGAAGGCACAGCAA [JR_Exc001_Sub008] | 52.2 | 65.2
AAAAAACAUGAGGAUCACCCAUGUGAGGAUAUGUGAAAAAAAAAAUAAAAAAAAAAAAGCAGAAGGUACAAAAA [LROPPY Exclusion 1 - v03_deltaG=3.94] | 39.9 | 43.7
AAAAUGUCAGGAUAUGUAGCAAAAGGUGAUCAAAAAAAGCUACAGAAGGGACAUGAGGAUCACCCAUGUAAAAA [Ex4: 935] | 2870 | 1020
AAGGAUCGAGGAUAUACAUAGAUACAGAUACAUGUAGACGUACAUGAGGAUCACCCAUGUAGAAGGCGAUCAUA [AJ 27] | 255 | 150
AACUGACAUGAGGAUCACCCAUGUCAGGAUAUGACUUGACGAAAAAAAACACGUCAUGUCAGAAGGGACAUGAA [Design 88: Sub-opt YB] | 16.9 | 15
GGUUGGGUAGGAUAUACAUGAGGAUCACCCAUGUGAGAGAAAAAAGUGAGAAAGAAAAGUAGAAGGGCUUGACG [salish99-ex3-67] | 58.7 | 80.3
AAAUGACAUGAGGAUCACCCAUGUCAGGAUAUGACUUGAAAAAAAAAAAAAAAACAUGUCAGAAGGGACAUGAA [Design 48: Sub-opt E] | 16.8 | 17.2
AAGAUCAGAGGAUAUACAGAAGGUGAUGAAAACAUCGCCAAACAUGAGGAUCACCCAUGUAGAAGGCUGAUCAA [JL EX2 2] | 204 | 119
AAGAACGAAGGAUAUACAUGAGGAUCACCCAUGUAAAAGAAAGAAAGGGAAAAGAAAAGUAGAAGGUCGAAGAA [Sekhemkheperre Osorkon I] | 31.2 | 28.3
CAGUACUGAGGAUAUACAUGAGGAUCACCCAUGUGGUCCAGCUAGGAAACUAGCACGUGUAGAAGGCAGUACUG [Ex3: 840] | 20 | 29.5
CUCUUGUGAGGAUAUGAAAGAAAAGAAAAGAAAGAAAAGAAUCAGAAGGCACAUGAGGAUCACCCAUGUAAGAA [EteRNA is fun!] | 79.7 | 37
AAGAAGGGAGGAUAUACAAAAUAAAAGAAAAGAAAGAAAGAACAUGAGGAUCACCCAUGUAGAAGGUCCAAGAA [Imyremeshaw] | 71 | 48.1
